Reference: the RNAGym collection of RNA variant scans (doi:10.7554/elife.80360)

B1: Hairpin Ribozyme (parent)
chain: GUCCUCUUUCACGUGCGCGUGAAAGAGAGAAGUGAACCAGAGAAACACACGUUGUGGUAUAUUACCUGGUA

Variants of: B1
Assay: self-cleavage, relative activity (ratio to wild type); higher = more cleavage; co-transcriptional

Variant | self-cleavage
C37U G68C | 0.139
C37U G68U | 0.193
C37U U52A | 0.672
C37U U53C | 0.808
C37U U63G | 0.172
C37U U67C | 0.142
C37U U67G | 0.234
C38A A39C | 0.0755
C38A A39G | 0.136
C38A A41G | 0.51
C38A A44G | 0.144
C38A A44U | 0.118
C38A A45C | 0.234
C38A A47C | 0.146
C38A A47U | 0.0951
C38A A49C | 0.11
C38A A49G | 0.182
C38A A59G | 0.118
C38A A59U | 0.134
C38A A61C | 0.174
C38A A61G | 0.258

Variant | self-cleavage
C38A A64C | 0.103
C38A A64G | 0.108
C38A A64U | 0.179
C38A A71G | 0.249
C38A C46U | 0.187
C38A C48A | 0.14
C38A C48G | 0.122
C38A C50A | 0.0919
C38A C50U | 0.15
C38A C65A | 0.198
C38A C66A | 0.216
C38A C66U | 0.0169
C38A G40C | 0.103
C38A G40U | 0.23
C38A G42C | 0.0881
C38A G42U | 0.112
C38A G51C | 0.223
C38A G68A | 0.148
C38A G69C | 0.168
C38A U53A | 0.215
C38A U53C | 0.228

Variant | self-cleavage
C38A U55C | 0.116
C38A U58A | 0.211
C38A U60G | 0.218
C38A U62C | 0.0746
C38A U67A | 0.124
C38A U67G | 0.137
C38A U70C | 0.115
C38A U70G | 0.141
C38G A39C | 0.146
C38G A39G | 0.117
C38G A43G | 0.171
C38G A49U | 0.137
C38G A59C | 0.12
C38G A61G | 0.166
C38G A61U | 0.227
C38G A71G | 0.172
C38G A71U | 0.138
C38G C65U | 0.0351
C38G G40C | 0.0961
C38G G42U | 0.172
C38G G51C | 0.147

Variant | self-cleavage
C38G G54A | 0.105
C38G G57U | 0.116
C38G G68C | 0.591
C38G U60C | 0.233
C38G U62A | 0.127
C38G U63C | 0.178
C38G U67A | 0.224
C38G U70C | 0.157
C38U A39G | 0.3
C38U A39U | 0.185
C38U A43C | 0.0947
C38U A44G | 0.0449
C38U A45U | 0.113
C38U A47U | 0.151
C38U A49G | 0.343
C38U A49U | 0.137
C38U A59G | 0.194
C38U A61C | 0.197
C38U A61G | 0.26
C38U A64C | 0.233
C38U A64G | 0.306
